According to paper doi:10.1101/2020.04.21.032086:

Biological target: LgBiT-tagged human CXCR4 receptor (UniProt P61073)
Assay: split reporter

- koff: 0.00367 s⁻¹
- kon: 10000 M⁻¹ s⁻¹
- pKD: 6.43
Binder: VSGWRLFKKIS [purified HiBiT-HaloTag fusion protein]
